The supplement of paper PMC9170038

Tested on: MS2 coat protein
Assay: apparent KD of MS2 coat protein; designed switch direction (-1 OFF switch, 1 ON switch): -1; higher = weaker reporter binding
Outline: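 Apparent KD, taken as the median over clusters for each design, was obtained by curve-fitting normalised cluster fluorescence. Designed RNA switches had been transcribed on Illumina chips by stalled E. coli RNA polymerase and titrated with SNAP-549-labelled MS2 coat protein, doubling from 0.7 or 1.5 nM to 3 µM.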

[1] = Eterna round: R95, input ligand: microRNA oligo, concentration not stated
[2] = Eterna round: R95, input ligand: FMN 200 uM
[3] = Eterna round: R95, input ligand: none
[4] = input ligand: microRNA oligo, concentration not stated

UACCUACAUGAGGAUCACCCAUGUCAGGAUAUCCGUGUGAACGAGUCGUUACACAGGCGGAGAAGGGACAUCGG [Eternabot (L1) Solution 65] (Eterna round: R97, puzzle: Exclusion 1)
apparent KD of MS2 coat protein (input ligand: FMN 200 uM): 0.0945 µM | apparent KD of MS2 coat protein (input ligand: none): 0.0542 µM

UGUGUGUCAGGAUAUGUGUGUGUGUGUGAAAGCGCGCGCGCGCAGAAGGGACAUGAGGAUCACCCAUGUGCGCG [-35.3, -34.3 kcal, A 20%, 6bis-6] (Eterna round: R97, puzzle: Exclusion 4)
apparent KD of MS2 coat protein (input ligand: FMN 200 uM): 0.484 µM | apparent KD of MS2 coat protein (input ligand: none): 0.22 µM

GCCGUAAAUGUGAGGAUAUACCUAUGGAAACAUAGGUAGAAGGCACAUGAGGAUCACCCAUGUUCUCAAUCGGC [Mat - Exclusion 4 - Eli Mod - D6] (Eterna round: R97, puzzle: Brourd's mod of Exclusion 4)
apparent KD of MS2 coat protein (input ligand: FMN 200 uM): 0.775 µM | apparent KD of MS2 coat protein (input ligand: none): 0.195 µM

CGUAGCAUUGUGAGGAUAUCUAGAGCUUCGGCUCUAGAGAAGGCACAUGAGGAUCACCCAUGUGAUUAGCUACG [BmEx4/9-C1] (Eterna round: R97, puzzle: Brourd's mod of Exclusion 4)
apparent KD of MS2 coat protein (input ligand: FMN 200 uM): 1.76 µM | apparent KD of MS2 coat protein (input ligand: none): 0.111 µM

CUUGUUUAAGUGAGGAUAUACUGUUAGUAAUGAUUGUAGAAGGUACAUGAGGAUCACCCAUGUUUAUUUAUAUU [JR_BME4_Sub042] (puzzle: Brourd's mod of Exclusion 4)
apparent KD of MS2 coat protein [1]: 0.0164 µM

CGAUCGGUAGGAUAUACAUGAACCUUGGUUGUGAGGCCUAAACAUGAGGAUCACCCAUGUAGAAGGACCUCGUA [EX2 C.10] (Eterna round: R97, puzzle: Exclusion 2)
apparent KD of MS2 coat protein (input ligand: FMN 200 uM): 0.0139 µM | apparent KD of MS2 coat protein (input ligand: none): 0.0138 µM

CUACUCGUUGUGAGGAUAUCGUUUUCGUCACGGAUCGAGAAGGCACAUGAGGAUCACCCAUGUUUGAUGUGGAU [JR_BMOE4_Sub091] (puzzle: Brourd's mod of Exclusion 4)
apparent KD of MS2 coat protein [1]: 0.0309 µM

AAGCCACAUGAGGAUCACCCAUGUCAGGAUAUCUCGAAAAGCAUAGAAAUAUGCGAAGAGAGAAGGGACUACUC [ChP Ext 10-04-2015 #4] (puzzle: Exclusion 1)
apparent KD of MS2 coat protein [1]: 0.0427 µM

GCAUGUCUUAAGGAUAUGCUAAGGCGUGAGCCGGCAGAAGGUAAGACAUGAGGAUCACCCAUGUUUUCCUAAAA [jl-ex6-4.32 ViennaUCT mod] (Eterna round: R97, puzzle: Exclusion 6)
apparent KD of MS2 coat protein (input ligand: FMN 200 uM): 0.0913 µM | apparent KD of MS2 coat protein (input ligand: none): 0.0207 µM

UUGGAUGUUGAGGAUAUGCUUUUUUUUAUUAUAGCAGAAGGCGAUACAUGAGGAUCACCCAUGUUCAUGGCUUU [JR_E6_Sub099] (puzzle: Exclusion 6)
apparent KD of MS2 coat protein [2]: 0.0145 µM | apparent KD of MS2 coat protein [1]: 0.0137 µM | apparent KD of MS2 coat protein [3]: 0.0146 µM

UCGCUGCGAGGAUAUACGUUCGCGCGCUUUCGUUUGCGCGUACAUGAGGAUCACCCAUGUAGAAGGCGCGCUGC [Apr-15 SS2-7] (puzzle: Exclusion 2)
apparent KD of MS2 coat protein [1]: 0.0137 µM

CCCAUGCCUGAGGAUAUGCUGUACAAAAGUACUGCAGAAGGCGGGACAUGAGGAUCACCCAUGUGGCGAAAGCC [Omei Ex G6] (Eterna round: R97, puzzle: Exclusion 6)
apparent KD of MS2 coat protein (input ligand: FMN 200 uM): 0.067 µM | apparent KD of MS2 coat protein (input ligand: none): 0.326 µM

CCGGCUGCUGUGAGGAUAUGCCUGUGGGUGCGUGGGUAGAAGGCACAUGAGGAUCACCCAUGUCCUGCGGUCCC [salish99_bmx4_r4_113] (Eterna round: R97, puzzle: Brourd's mod of Exclusion 4)
apparent KD of MS2 coat protein (input ligand: FMN 200 uM): 0.0639 µM | apparent KD of MS2 coat protein (input ligand: none): 0.066 µM

AAAUUAGCAAGUAGAUCCGACAUGAGGAUCACCCAUGUUAUCUGAAAGAACGCAGAAUAAUUGUGAGCUCGUCUAAA [Sensor-V1 #3] (Eterna round: R97, puzzle: Sensor, turn-off variant 1)
apparent KD of MS2 coat protein (input ligand: FMN 200 uM): 0.162 µM | apparent KD of MS2 coat protein (input ligand: none): 0.181 µM

UGGGUCACAGGAUAUACAUGAGGAUCACCCAUGUCGUAUUUCGUGGCGGAGAGCUCGAGUAGAAGGGUGCAUCC [Malarala] (Eterna round: R96, puzzle: Exclusion 3)
apparent KD of MS2 coat protein (input ligand: FMN 200 uM): 0.297 µM | apparent KD of MS2 coat protein [4]: 0.0589 µM | apparent KD of MS2 coat protein (input ligand: none): 0.148 µM

ACAAGCUUUUAGAUUCUUAACAUGAGGAUCACCCAUGUGCUCGUCUUAUUUUCCGGCGGGCCGCCGGAAAAGCUUGU (Eterna round: R97, puzzle: Sensor, turn-off variant 1)
apparent KD of MS2 coat protein (input ligand: FMN 200 uM): 0.0925 µM | apparent KD of MS2 coat protein (input ligand: none): 0.0938 µM

GGGUGACAUGAGGAUCACCCAUGUCAGGAUAUGAUUCUGCUUGCGAAAGCGAGUAGAAUCAGAAGGGACAUCCC (Eterna round: R97, puzzle: Exclusion 1)
apparent KD of MS2 coat protein (input ligand: FMN 200 uM): 0.293 µM | apparent KD of MS2 coat protein (input ligand: none): 0.0652 µM

AUAGAUCGAGUUAGGAUAUUGCAGGCCGAGUACAGCAAGAAGGAACAUGAGGAUCACCCAUGUAAACGUGGCUC [Eternabot (L1) Solution 53] (Eterna round: R97, puzzle: Brourd's mod of Exclusion 4)
apparent KD of MS2 coat protein (input ligand: FMN 200 uM): 0.0259 µM | apparent KD of MS2 coat protein (input ligand: none): 0.0177 µM

AGAAAAGACCUAGGAUAUACCCAGUGGGUAGAGGGUCAUAAUAAUAAAACAUGAGGAUCACCCAUGUAGAAGGAGGGAAAGAAG [Biriusdibe] (Eterna round: R96, puzzle: Exclusion NG 2)
apparent KD of MS2 coat protein (input ligand: FMN 200 uM): 0.0581 µM | apparent KD of MS2 coat protein [4]: 0.0471 µM | apparent KD of MS2 coat protein (input ligand: none): 0.0632 µM

UUGUAGUGAGGAUAUAUAUAGAGGUUUUAUUAAUUUUUAAAACUUGAGGAUCACCCAAGUAGAAGGCGCAAAGU [JR_Ex2_Sub071] (Eterna round: R97, puzzle: Exclusion 2)
apparent KD of MS2 coat protein (input ligand: FMN 200 uM): 0.0415 µM | apparent KD of MS2 coat protein (input ligand: none): 0.0399 µM

GAUCACUGAGGAUAUACACAGAUACAAAGUAUCUGACCGUGACAUGAGGAUCACCCAUGUAGAAGGCAGAGGUC [Omei Ex2 B1] (Eterna round: R97, puzzle: Exclusion 2)
apparent KD of MS2 coat protein (input ligand: FMN 200 uM): 0.384 µM | apparent KD of MS2 coat protein (input ligand: none): 0.0472 µM

UCAAGUUUUUAGAUUCUUAACAUGAGGAUCACCCAUGUGCUCGUCUUGUUGUACUAUCACUCGAAAGUGAUAGUACA (Eterna round: R97, puzzle: Sensor, turn-off variant 1)
apparent KD of MS2 coat protein (input ligand: FMN 200 uM): 0.0435 µM | apparent KD of MS2 coat protein (input ligand: none): 0.0464 µM

UGAUCACAUGAGGAUCACCCAUGUCAGGAUAUCUACAUUGAAGCUGCGGCUUCAAUGUAGAGAAGGGACAUAAU [E1/3-B3] (Eterna round: R97, puzzle: Exclusion 1)
apparent KD of MS2 coat protein (input ligand: FMN 200 uM): 0.117 µM | apparent KD of MS2 coat protein (input ligand: none): 0.355 µM

GAAGAAGAGAGAAAAGAAAACAUGAGGAUCACCCAUGUGAGAAGAUGAGGGUGUAGCAGGCUUUAUGCUCGUCUUAU (puzzle: Sensor v3, turn-off variant 1)
apparent KD of MS2 coat protein [2]: 0.0275 µM | apparent KD of MS2 coat protein [1]: 0.0785 µM | apparent KD of MS2 coat protein [3]: 0.0279 µM

UGCGGUGAGGUAAGGAUAUUUGGGCAAUUACGCCCGGAGAAGGUACAUGAGGAUCACCCAUGUGCAGUAAGGCU [Eternabot (L2) Solution 18] (Eterna round: R97, puzzle: Brourd's mod of Exclusion 4)
apparent KD of MS2 coat protein (input ligand: FMN 200 uM): 0.122 µM | apparent KD of MS2 coat protein (input ligand: none): 0.0269 µM

CUUUUGUGAGGAUAUCAGUAGUAAAAAAAUAAAAUUACUUCUGAGAAGGCACAUGAGGAUCACCCAUGUUCCUC [salish99_ex4_r3_027] (puzzle: Exclusion 4)
apparent KD of MS2 coat protein [1]: 0.0374 µM

AAGAAACAUGAGGAUCACCCAUGUGAGGAUAUGUAAAAGAAAAGAAAAUAAAGAAGAAACAGAAGGCACAAAGG [Mat - Mod of Hog D21] (puzzle: Exclusion 1)
apparent KD of MS2 coat protein [2]: 0.0518 µM | apparent KD of MS2 coat protein [1]: 0.0391 µM | apparent KD of MS2 coat protein [3]: 0.0318 µM

GGUGGACAUGAGGAUCACCCAUGUGAGGAUAUCGGCUGGUACGUGGUGGCUGGCAUCUCGAGAAGGCACAUAGU [Exclusion 1 V66] (puzzle: Exclusion 1)
apparent KD of MS2 coat protein [1]: 0.0836 µM

GUCAGCUCGUGAGGAUAUACAUGAGGAUCACCCAUGUGAUCAAUAGCAGCUUCGGCUGCAUUAAUGUAGAAGGUACGAGCUGAC [ENG2/5-C1] (Eterna round: R96, puzzle: Exclusion NG 2)
apparent KD of MS2 coat protein (input ligand: FMN 200 uM): 0.0652 µM | apparent KD of MS2 coat protein [4]: 0.111 µM | apparent KD of MS2 coat protein (input ligand: none): 0.7 µM

AGAAGUAGAAACCGAUCCUACAUGAGGAUCACCCAUGUAGCAAGACGUGCACGCGAAGCUCGUCAGACUACCAGAAC [salish99_TOv1_r3_008] (puzzle: Sensor v3, turn-off variant 1)
apparent KD of MS2 coat protein [2]: 0.229 µM | apparent KD of MS2 coat protein [1]: 0.264 µM | apparent KD of MS2 coat protein [3]: 0.421 µM

CUCCGGCGUGUAGGAUAUGGAUCCGAUUAGGAUCCAGAAGGACAUGAGGAUCACCCAUGUACAUGUAAACGGUCGUCACCGGGC [salish99_ExNG1_r04_207] (Eterna round: R96, puzzle: Exclusion NG 1)
apparent KD of MS2 coat protein (input ligand: FMN 200 uM): 0.134 µM | apparent KD of MS2 coat protein [4]: 0.0262 µM | apparent KD of MS2 coat protein (input ligand: none): 0.0613 µM

GUUUUCAGACGGAGAUCCUACAUGAGGAUCACCCAUGUCUCACUAGUUUUUUGCUCGUCUUAUCCUCCUCUGUUCUC [Elimod 29 - Jieux - Sensor, turn-off variant 1] (Eterna round: R97, puzzle: Sensor, turn-off variant 1)
apparent KD of MS2 coat protein (input ligand: FMN 200 uM): 0.413 µM | apparent KD of MS2 coat protein (input ligand: none): 0.926 µM
